Assay [1] deals with T1, Soluble CD28-Ig (extracellular domain of human CD28 fused to the Fc portion of human IgG1) (human, UniProt P10747 19-152, biotin-conjugated (NHS-biotin) in the FACS binding assays).
T1 construct: extracellular domain; bought from R&D Systems; also called sCD28-Ig; CD28-Ig Fc; not shown: Fc portion of human IgG1
As to the kind of experiment: competitive FACS on transfected cells, biotin-sCD28-Ig with FITC-sCTLA-4-Ig; grade 0-2 of CD28/CTLA-4 ratio vs WT hB7-1.

For assay [2], the target named is CD28 receptor on human T cells (human, UniProt P10747 19-220). Description: cell-based or functional assay.
In assay [3] the target is T2, Soluble CTLA-4-Ig (extracellular domain of human CTLA-4 fused to the Fc portion of human IgG1) (human, UniProt P16410 36-161, FITC-conjugated in the FACS binding assays).
T2 construct: extracellular domain; bought from R&D Systems; also called sCTLA-4-Ig; CTLA-4-Ig Fc; not shown: Fc portion of human IgG1
T2 sequence (P16410 36-161): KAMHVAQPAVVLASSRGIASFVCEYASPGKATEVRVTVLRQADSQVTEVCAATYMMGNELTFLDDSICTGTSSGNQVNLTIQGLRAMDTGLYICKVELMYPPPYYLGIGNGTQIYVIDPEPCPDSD
As to the kind of experiment: flow cytometry of transfected cells, at least two experiments. For orientation: Flow cytometry measures light scatter and fluorescence of single cells or particles in a stream.

Assay [4] deals with T1, Soluble CD28-Ig (extracellular domain …). Description: flow cytometry of transiently transfected 293 cells.
Assay [5] concerns the target T2, Soluble CTLA-4-Ig (extracellular domain …). Description: binding assay, data not shown.
The target of assay [6] is T1, Soluble CD28-Ig (extracellular domain …). As to the kind of experiment: binding assay, data not shown.
The target in assay [7] is T2, Soluble CTLA-4-Ig (extracellular domain …). Description: two-color FACS of transfected 293 cells. As to the method:
(§1) The labeled cells were subsequently handled at 4° C., washed twice with DMEM/10% FCS and incubated with 0.1 μg/ml Streptavidin-phycoerythrin (PE) (Pharmingen, San Diego, Calif.) in 100 μl for 15 min. Biotin binds the fluorescence marker Streptavidin-PE. (R-PE has an excitation maximum of 565 nanometers (nm) and an emission maximum of 578 nm. B-PE has excitation and emission maxima of 545 nm and 578 nm, respectively. FITC has excitation and emission maxima of 494 and 519, respectively.) The cells were again washed twice and resuspended in 200 μl medium with 5 μg/ml propidium iodide (PI). The cells were then analyzed using a FACSCalibur flow cytometer and CellQuest software (BDIS, San Jose, Calif.). Cell sorting was performed by flow-cytometry based cell sorting screening methods using FACS (Fluorescence-Activated Cell Sorting) Vantage SE cell sorter (BDIS) (Becton Dickinson; San Jose, Calif.). The staining concentration was determined for each labeled protein to provide a maximal Mean Fluorescence Intensity (MFI) and minimal background signal (e.g., optimum staining concentration was the concentration per 10⁶ cells).

Assay [8] deals with T1, Soluble CD28-Ig (extracellular domain …). As to the kind of experiment: two-color FACS of transfected 293 cells. As to the method: as §1

The values below come from US20100261660A1 (published 2010).

B1: Round 2 CD28BP-15 (ligand)
chain: ITPKSVTKRVKETVMLSCDYNTSTEELTSLRIYWQKDSKMVLAILPGKVQVWPEYKNRTITDMNDNPRIVILALRPSDSGTYTCVIQKPVLKGAYKLEHLASVRLMIRADFPVPTINDLGNPSPNIRRLICSTSGGFPRPHLYWLENGEELNATNTTVSQDPGTELYMISSELDFNVTNNHSIVCLIKYGELSVSQIFPWSKPKQEPPIDQLPFWVIIPVSGALVLTAVVLYCLACRHVARWKRTRRNEETVGTERLSPIYLGSAQSSG
notes: also called clone R2 CD28BP-15; clone 15
For the molecule B1, in assay [1], the “Binding Score” value was 2. For the same molecule, in assay [2], the “T cell proliferation (3H-thymidine incorporation), irradiated 293 transfectants with purified human T cells and anti-CD3 mAbs” value was about 10 fold.

B2: Round 1 CD28BP-84 (ligand)
chain: GISQVTKSVKEMAALSCDYNISIDELARMRIYWQKDQQMVLSIISGQVEVWPEYKNRTFPDIINNLSLMILALRLSDKGTYTCVVQKNENGSFRREHLTSVTLSIRADSPVPSITDIGHPAPNVKRIRCSASGGFPEPRLAWMEDGEELNAVNTTVDQDLDTELYSVSSELDFNVTNNHSIVCLIKYGELSVSQIFPWSKPKQEPPIDQLPFWVIIPVSGALVLTAVVLYCLACRHVARWKRTRRNEETVGTERLSPIYLGSAQSSG
notes: also called R1clone 84; Clone 84
Turning to B2, in assay [1], the “Binding Score” value is 1. The binding result in assay [3] is recorded as “binds”.

B3: Round 1 CD28BP-118 (ligand)
chain: GISQVTKSVKEMAALSCDYNISIDELARMRIYWQKDQQMVLSIISGQVEVWPEYKNRTFPDIINNLSLMILALRLSDKGTYTCVVQKNENGSFRREHLTSVTLSIRADFPVPSITDIGHPAPNVKRIRCSASGDFPEPRLAWMEDGEELNAVNTTVDQDLDTELYSVSSELDFNVTNNHSIVCLIKYGELSVSQIFPWSKPKQEPPIDQLPFWVIIPVSGALVLTAVVLYCLACRHVARWKRTRRNEETVGTERLSPIYLGSAQSSG
notes: also called R1clone 118; Clone 118
For B3, the “Binding Score” value in assay [1] came out at 1. Moreover, the binding result in assay [3] is given as “binds”.

B4: CD28BP-FLAG (CD28BP-15 with a FLAG-tag) (ligand)
chain: DYKDDDDKITPKSVTKRVKETVMLSCDYNTSTEELTSLRIYWQKDSKMVLAILPGKVQVWPEYKNRTITDMNDNPRIVILALRPSDSGTYTCVIQKPVLKGAYKLEHLASVRLMIRADFPVPTINDLGNPSPNIRRLICSTSGGFPRPHLYWLENGEELNATNTTVSQDPGTELYMISSELDFNVTNNHSIVCLIKYGELSVSQIFPWSKPKQEPPIDQLPFWVIIPVSGALVLTAVVLYCLACRHVARWKRTRRNEETVGTERLSPIYLGSAQSSG
notes: also called FLAG-construct of CD28BP-15
For B4, the binding result in assay [4] is “binds”.

B5: Baboon B7-1 (ligand)
chain: VIHVTKEVKEVATLSCGHNVSVEELAQTRIYWQKEKKMVLTMMSGDMNIWPEYKNRTIFDITNNLSIVILALRPSDEGTYECVVLKYEKDAFKREHLAEVMLSVKADFPTPSITDFEIPPSNIRRIICSTSGGFPEPHLFWLENGEELNAINTTVSQDPGTELYTVSSKLDFNMTTNHSFVCLIKYGHLRVNQTFNWNTPKQEHFPDNLLPSWAITLISVNGIFVICCLTYCFAPRCRERRRNETLRRESVRPV
As for B5, the binding result in assay [5] and in assay [6] was “binds” throughout.

B6: Orangutan B7-1 (ligand)
chain: VIHVTKEVKEVATLSCGHNVSVEELAQTRIYWQKEKKMVLTMMSGDMNIWPEYKNRTIFDITNNLSIVILALRPSDEGTYECVVLKYEKDAFKREHLAEVTLSVKADFPTPSISDFEIPTSNIRRMICSTSGGFPEPHLSWLENGEELNAISTTVSQDPETELYAVSSKLDFNMTTNHSFMCLIKYGHLRVNQTFNWNTPKQEHFPDNLLPSWAITLISVNGIFVICCLTYCFAPRCRERRSNERLRRESVRPV
For B6, the binding result in assay [5] and in assay [6] was “binds” each time.

B7: Rhesus B7-1 (ligand)
chain: VIHVTKEVKEVATLSCGHNVSVEELAQTRIYWQKEKKMVLTMMSGDMNIWPEYKNRTIFDITNNLSIVILALRPSDEGTYECVVLKYEKDAFKREHLAEVMLSVKADFPTPSITDFEIPPSNIRRIICSTSGGFPEPRLSWLENGEELNAISTTVSQDPETELYTVSSKLDFNMTTNHSFMCLIKYGHLRVNQTFNWNTPKQEHFPDNLLPSWAITLISVNGIFVICCLTHCFAPRCRERRRNETLRRESVRPV
notes: also called rhesus monkey B7-1
Take B7: the binding result in assay [7] and in assay [8] was “binds” throughout.
